From patent publication US20240132578A1 come the findings set out here.

Common to all, as to test: cell-based or functional assay
In test [1] the target is HIV-1 Env of isolate MGRM-D-019 (pseudovirus) (HIV-1).
The target in test [2] is HIV-1 Env of isolate MGRM-D-003 (pseudovirus) (HIV-1).
The target in test [3] is HIV-1 Env of isolate MGRM-F1-013 (HIV-1).
In test [4] the target is HIV-1 Env of isolate MGRM-F1-015 (HIV-1).
Test [5] has as its target HIV-1 Env of isolate MGRM-D-008 (pseudovirus) (HIV-1).
The target of test [6] is HIV-1 JR-CSF Env T394A (HIV-1 (isolate JR-CSF)) (UniProt P20871).
In test [7] the target is HIV-1 Env of isolate MGRM-F1-016 (HIV-1).
The target in test [8] is HIV-1 JR-CSF Env I420A (HIV-1 (isolate JR-CSF)) (UniProt P20871).
In test [9] the target is HIV-1 Env of isolate MGRM-D-012 (pseudovirus) (HIV-1).
Test [10] has as its target HIV-1 Env of isolate MGRM-D-018 (pseudovirus) (HIV-1).
The target of test [11] is HIV-1 JR-CSF Env I414A (HIV-1 (isolate JR-CSF)) (UniProt P20871).
The target of test [12] is HIV-1 Env of isolate MGRM-C-005 (HIV-1).
Test [13] concerns the target HIV-1 Env of isolate MGRM-F1-021 (HIV-1).
Test [14] deals with HIV-1 Env of isolate CMU02 (subtype AE) (HIV-1).
Test [15] deals with HIV-1 Env of isolate MGRM-A-001 (pseudovirus) (HIV-1).
The target in test [16] is HIV-1 92TH021 envelope protein (Env) on pseudovirus (HIV-1).
Test [17] addresses HIV-1 Env of pseudovirus isolate MGRM-Chronic-B-002 (clade B) (HIV-1).
In test [18] the target is HIV-1 Env of isolate MGRM-C-019 (subtype C), on pseudovirus (HIV-1).
Test [19] deals with HIV-1 Env of isolate 92RW009 (subtype A) (HIV-1).
The target of test [20] is HIV-1 Env of isolate MGRM-C-014 (subtype C), on pseudovirus (HIV-1).
For test [21], the target named is HIV-1 Env of pseudovirus isolate MGRM-Chronic-B-003 (clade B) (HIV-1).

In the case of 5136_H01 (PGT-131) (antibody), the IC50 (µg/mL), pseudovirus neutralization in test [1] is greater than 50 µg/mL; in test [2] it was 19.6 µg/mL; in [3] it was greater than 50 µg/mL; in [4], greater than 50 µg/mL; in [5] it was greater than 50 µg/mL; in test [7], greater than 50 µg/mL. The IC50 (µg/mL), pseudovirus neutralization is greater than 50 µg/mL in test [9]; 0.148 µg/mL in [10]; 1.36 µg/mL in [12]; greater than 50 µg/mL in [13]; greater than 50 µg/mL in test [15]. In addition, the Fold IC50 increase relative to wild-type (pseudovirus neutralization) amounted to 0.9 fold in [6], 153 fold in test [8] and 1 fold in test [11]. The IC50, pseudovirus neutralization in test [14] was greater than 50 µg/mL.
For the substance 5114_A19 (PGT-128) (antibody), the IC50 (µg/mL), pseudovirus neutralization in test [1] is greater than 50 µg/mL; in [2], 0.019 µg/mL; in test [3], 12.7 µg/mL; in [4] it was greater than 50 µg/mL; in [5], 0.033 µg/mL; in [7], 1.21 µg/mL. Moreover, the IC50 (µg/mL), pseudovirus neutralization in test [9] was greater than 50 µg/mL; in [10], 0.008 µg/mL; in test [12] it was 0.03 µg/mL; in [13], greater than 50 µg/mL; in test [15], greater than 50 µg/mL. Besides, the Fold IC50 increase relative to wild-type (pseudovirus neutralization) in test [6] was 3 fold; in test [8] it was 0.8 fold; in test [11], 1.4 fold. This substance yielded an IC50, pseudovirus neutralization in test [14] greater than 50 µg/mL.
With 5345_I01 (PGT-137) (antibody), the IC50 (µg/mL), pseudovirus neutralization in [1], in [2], in [3], in [4], in [5] and in test [7] was greater than 50 µg/mL throughout. For the same substance, the IC50 (µg/mL), pseudovirus neutralization in [9] is greater than 50 µg/mL; in test [10], 15.1 µg/mL; in [12] it was greater than 50 µg/mL; in test [13], greater than 50 µg/mL; in test [15], greater than 50 µg/mL. The substance further showed an IC50, pseudovirus neutralization in test [14] greater than 50 µg/mL.
For the substance 5329_C19 (PGT-136) (antibody), the IC50 (µg/mL), pseudovirus neutralization in test [1], in test [2], in [3], in test [4], in test [5] and in test [7] was greater than 50 µg/mL in each case. Besides, the IC50 (µg/mL), pseudovirus neutralization in test [9], in [10], in test [12], in [13] and in [15] was greater than 50 µg/mL throughout. Besides, the IC50, pseudovirus neutralization in test [14] was greater than 50 µg/mL. Moreover, the IC50 (ug/mL), pseudovirus neutralization in test [16] is greater than 10 µg/mL.
4995_P16 (PGT-145) (antibody): the IC50, pseudovirus neutralization in test [17] is 3.67 µg/mL; in test [19], 0.026 µg/mL; in test [21], 0.045 µg/mL. Moreover, the IC50, single-round pseudovirus neutralization in [18] worked out at 0.005 µg/mL; in [20] it was 5.82 µg/mL.
Regarding 4980_N08 (PGT-143) (antibody), the IC50, pseudovirus neutralization is greater than 50 µg/mL in [17], 0.01 µg/mL in test [19] and 0.854 µg/mL in [21]. The IC50, single-round pseudovirus neutralization was determined as 0.004 µg/mL in test [18] and 8.81 µg/mL in test [20].
